In patent publication US6359127B1, “MCH2, an apoptotic cysteine protease, and compositions for making and methods of using the same” (Thomas Jefferson University, priority 1995, dated 2002):

B1: CPP32: human Cpp32 (Mch1) apoptotic cysteine protease, expressed as GST-fusion protein (protein)
chain: MENTENSVDSKSIKNLEPKIIHGSESMDSGISLDNSYKMDYPEMGLCIIINNKNFHKSTGMTSRSGTDVDAANLRETFRNLKYEVRNKNDLTREEIVELMRDVSKEDHSKRSSFVCVLLSHGEEGIIFGTNGPVDLKKITNFFRGDRCRSLTGKPKLFIIQACRGTELDCGIETDSGVDDDMACHKIPVEADFLYAYSTAPGYYSWRNSKDGSWFIQSLCAMLKQYADKLEFMHILTRVNRKVATEFESFSFDATFHAKKQIPCIVSMLTKELYFYH
B2: Mch2β: alternatively spliced shorter Mch2 isoform, 204 amino acid ~23 kDa protein, SEQ ID NO:7 (protein)
chain: MSSASGLRRGHPAVSTVSHADADCFVCVFLSHGEGNHIYAYDAKIEIQTLTGLFKGDKCHSLVGKPKIFIIQACRGNQHDVPVIPLDVVDNQTEKLDTNITEVDAASVYTLPAGADFLMCYSVAEGYYSHRETVNGSWYIQDLCEMLGKYGSSLEFTELLTLVNRKVSQRRVDFCKDPSAIGKKQVPCFASMLTKKLHFFPKSN
B3: Mch2α: full length Mch2 isoform, 293 amino acid ~34 kDa Ced-3/ICE-like cysteine protease, SEQ ID NO:5 (protein)
chain: MSSASGLRRGHPAGGEENMTETDAFYKREMFDPAEKYKMDHRRRGIALIFNHERFFWHLTLPERRRTCADRDNLTRRFSDLGFEVKCFNDLKAEELLLKIHEVSTVSHADADCFVCVFLSHGEGNHIYAYDAKIEIQTLTGLFKGDKCHSLVGKPKIFIIQACRGNQHDVPVIPLDVVDNQTEKLDTNITEVDAASVYTLPAGADFLMCYSVAEGYYSHRETVNGSWYIQDLCEMLGKYGSSLEFTELLTLVNRKVSQRRVDFCKDPSAIGKKQVPCFASMLTKKLHFFPKSN
B4: ICEγ: isoform of interleukin-1 β converting enzyme (ICE), expressed as GST-fusion protein (protein)
chain: MADKVLKEKRKLFIRSMGEAPQAVQDNPAMPTSSGSEGNVKLCSLEEAQRIWKQKSAEIYPIMDKSSRTRLALIICNEEFDSIPRRTGAEVDITGMTMLLQNLGYSVDVKKNLTASDMTTELEAFAHRPEHKTSDSTFLVFMSHGIREGICGKKHSEQVPDILQLNAIFNMLNTKNCPSLKDKPKVIIIQACRGDSPGVVWFKDSVGVSGNLSLPTTEEFEDDAIKKAHIEKDFIAFCSSTPDNVSWRHPTMGSVFIGRLIEHMQEYACSCDVEEIFRKVRFSFEQPDGRAQMPTTERVTLTRCFYLFPGH
B5: ICE: mammalian interleukin-1 β converting enzyme, expressed from recombinant ICE baculovirus as control (protein)
chain: B4 chain

Legend:
YVAD-AMC (SEQ ID NO:8) = test: cleavage of fluorogenic peptide YVAD-AMC by bacterial extracts expressing GST-fusion enzymes; assay type: biochemical; conditions: for ability to cleave the YVAD substrate: total bacterial extracts, GST-fusion proteins
Method: (§1) To determine the enzymatic activity of Mch2, CPP32 or ICE, these enzymes were expressed in E. coli as fusion proteins with glutathione S-transferase (GST). A GST-CPP32-p20 fusion protein that contains amino acids 1-175 of CPP32 and a GST nonfusion protein were used as controls. After induction with IPTG, bacterial extracts were prepared from E. coli expressing the recombinant fusion proteins. The extracts were absorbed to glutathione-Sepharose resin, washed several times and then analyzed by SDS-PAGE. The ICEγ, CPP32 and Mch2α preparations containing GST-fusion proteins ranged in size from ˜28-35 kDa. The GST nonfusion protein control migrated as a ˜27-28 kDa protein. […] Aps26 of ICEγ which corresponds to Asp 119 of ICEα is a site that is cleaved during ICE activation. Cleavage at this site would generate a GST-fusion protein with a predicted molecular mass of ˜29 kDa that might correspond to the 31 kDa band. Cleavage at Asp 3 of ICEγ, although it is not a known ICE cleavage site, could generate the 28 kDa band (lane 2). Similar to the GST-ICEγ preparation, the GST-CPP32 and GST-Mch2 preparations contain smaller than predicted GST fusion products. The GST-CPP32 fusion product migrates as a ˜29-30 kDa protein. Cleavaae at Asp9 or Asp28 of CPP32 would generate products with predicted molecular masses of ˜27.3 kDa or ˜29.4 kDa, respectively. Based on the observed size of the GST-CPP32 product, CPP32 is most probably cleaved at Asp28, although it is possible that both sites are cleaved during CPP32 autoprocessing. Unlike the GST-CPP32 which contains full length CPP32, the GST-CPP32-p20 product which contains a truncated CPP32 migrates as a ˜46 kDa protein that agreed with its predicted molecular mass. […] Therefore if CPP32 is cleaved at Asp28, CPP32 appears to be made up of two subunits of relative molecular masses of 17 kDa and 11 kDa. However, the exact Asp cleavage sites that are utilized to generate active CPP32 remains to be determined by amino acid sequencing. The GST-Mch2α preparation contains two major bands that migrate as ˜31-32 kDa and ˜34-35 kDa proteins. This is consistent with cleavage at Asp23, Asp32 or Asp40 of Mch2α. These GST-Mch2α cleavage products are larger than the GST-CPP32 product because of the presence of extra 33 amino acids in the GST-Mch2α fusion construct that are derived from the 5′ untranslated region of Mch2α. A minor band of ˜27 kDa is also present in this preparation that could be due to cleavage at a site near the C-terminus of the GST peptide itself. The majority of GST-Mch2β was expressed in E. coli in […] and was not cleaved.
After establishing that Mch2 and CPP32 can autoprocess in bacteria, their enzymatic activity were tested using two fluorogenic peptide substrates, YVAD-AMC (SEQ ID NO:8) and DEVD-AMC (SEQ ID NO:3). The YVAD (SEQ ID NO:8) […] is the ICE cleavage site in pro-IL1β and the DEVD (SEQ ID NO:9) tetrapeptide is a site present in PARP that is cleaved by an ICE-like protein during apoptosis. The enzymatic activities of Mch2α, Mch2β, CPP32 and ICEγ, in total bacterial extracts from cells expressing these enzymes as GST-fusion proteins was studied using the YVAD-AMC (SEQ ID NO:8) and DEVD-AMC (SEQ ID NO:3) tetrapeptides as substrates. […] The purified GST-fusion products or the GST control extract had no enzymatic activity with either of the substrates.

DEVD-AMC (SEQ ID NO:3) = test: cleavage of fluorogenic peptide DEVD-AMC by bacterial extracts expressing GST-fusion enzymes; assay type: biochemical; conditions: for ability to cleave the DEVD substrate: total bacterial extracts, GST-fusion proteins
Method: as §1
After establishing that Mch2 and CPP32 can autoprocess in bacteria, their enzymatic activity were tested using two fluorogenic peptide substrates, YVAD-AMC (SEQ ID NO:8) and DEVD-AMC (SEQ ID NO:3). […]

human PARP = test: Western blot analysis of PARP cleavage after incubation with recombinant enzyme; assay type: biochemical; conditions: Western blot with 4C10-5 antibody
Method: In apoptotic cells, nuclear proteins such as PARP, lamins and the 70-kDa protein component of the U1 small nuclear ribonucleoprotein are cleaved specifically by an unknown ICE-like cysteine protease(s). Cleavage of human PARP at the DEVD (SEQ ID NO:9) site (amino acid 211-214) would generate a large protein product of predicted molecular mass of 89.3 kDa (amino acids 215-1014). Western blot analysis of human PARP after incubation with recombinant Mch2α, Mch2β, ICEγ or CPP32 was performed using the 4C10-5 antibody. This antibody recognizes an epitope in the 41 kDa C-terminal chymotryptic fragment of PARP. CPP32 cleaved PARP to generate a major band of ˜90 kDa and a minor band of 57 kDa. The 90 kDa band was most probably generated by cleaving the DEVD (SEQ ID NO:9) site at residue 214 of PARP. This cleavage product is believed to correspond to an 85 kDa PARP cleavage product which has been described in apoptotic cells. The 57 kDa cleavage product is probably generated by cleavage at a site C-terminal to the DEVD (SEQ ID NO:9) site. This product was not detected with the C-2-10 antibody used in a previous study. This is probably because it recognizes an epitope that is N-terminal to the epitope that is recognized by the 4C10-5 antibody used in the present study. Mch2α also cleaved PARP to generate a major product of ˜83 kDa and a minor product of ˜57 kDa similar to that obtained with CPP32. PARP was not cleaved by Mch2β or ICEγ. […] Furthermore, the deletion in Mch2β abrogates its enzymatic activity.

Sf9 cells = test: apoptosis of Sf9 cells infected with recombinant baculovirus expressing the protein; assay type: cell-based, insect; conditions: polyhedron promoter
Description: To test whether expression of Mch2α has a similar apoptotic effect, Sf9 cells were infected with a recombinant baculovirus expressing Mch2α or Mch2β under the polyhedron promoter. Cells were also infected with the wild type virus and the recombinant ICE baculovirus as controls.

Molecule | ability to cleave the YVAD substrate (YVAD-AMC (SEQ ID NO:8)) | activity in cleaving the DEVD substrate relative to ICEγ or Mch2α (DEVD-AMC (SEQ ID NO:3); from initial rate of the reactions, assuming similar amount of each enzyme in extracts) [fold] | ability to cleave the DEVD substrate (DEVD-AMC (SEQ ID NO:3)) | cleavage of PARP (human PARP) | characteristic signs of apoptosis (membrane blebbing, nuclear fragmentation and condensation, internucleosomal DNA cleavage) (Sf9 cells) | viability of infected cells (Sf9 cells) | activity in cleaving the YVAD substrate relative to CPP32 (YVAD-AMC (SEQ ID NO:8); ICEγ versus CPP32)
B1 | able to cleave | ~150 | able to cleave | cleaved PARP |  |  | 
B2 | No detectable enzymatic activity |  |  | not cleaved |  |  | 
B3 | No detectable enzymatic activity |  | able to cleave | cleaved PARP | several characteristic signs of apoptosis | decrease in viability | 
B4 | able to cleave |  | able to cleave | not cleaved |  |  | about 3 fold
B5 |  |  |  |  | several characteristic signs of apoptosis |  | 
